The values that follow come from patent publication US20210269521A1 (L AND L BIOPHARMA, published 2021).

The target in experiment [1] is T1, human PD-1 extracellular domain protein expressed in Example 1 (tag not stated) (human, UniProt Q15116 25-170).
T1 construct: extracellular domain; also called PD-1 protein; not shown: human IgG1 Fc or his tag
Briefly: ELISA; 15 mg/mL in preparation buffer (20 mM His pH 6.0), 37°C 0 day (-80°C). In general terms: ELISA stands for enzyme-linked immunosorbent assay.

Experiment [2] has as its target T2, human TIM-3 extracellular domain-human IgG1 Fc fusion protein (human, UniProt Q8TDQ0 22-199).
T2 construct: Made in house or bought (ACROBiosystems TM3-H5258); also called TIM-3-hFc; not shown: human IgG1 Fc
The description is as above.

The target in experiment [3] is T1, human PD-1 extracellular domain protein …. Briefly: ELISA; pH 6.0, 0 day, against 0 day.
The target in experiment [4] is T2, human TIM-3 extracellular domain-human …. The experiment in a line: ELISA; pH 6.0, 0 day, against 0 day.
For experiment [5], the target named is T1, human PD-1 extracellular domain protein …. The experiment in a line: ELISA, PD-1 coated. The method, then: (§1) PD-1 expressed in Example 1 was diluted to a concentration of 1 μg/ml with PBS buffer, pH 7.4, and added to a 96-well microplate (Corning, CLS3590-100EA) at 50 μl per well, thereby incubating in an incubator at 37° C. for 2 hours. After discarding the liquid, a blocking solution of 5% skimmed milk (Shanghai Shenggong Biological Engineering Co., Ltd., A600669-0250) diluted with PBS was added at 200 μl per well, followed by incubating at 37° C. for 3 hours or 4° C. overnight (16-18 hours)) for blocking. Subsequently, the blocking solution was discarded, and the microplate was washed 5 times with PBST buffer (pH 7.4 PBS containing 0.05% tween-20). […] Subsequently, the microplate was washed 5 times with PBST, then 50 μl/well of 1:2500 diluted HRP-labeled secondary antibody (Jackson Immuno Research, 115-035-003) was added, thereby incubating at 37° C. for 1 hour. After washing the microplate 5 times with PBST, 50 μl/well TMB chromogenic substrate (KPL, 52-00-03) was added, then incubated at room temperature for 5-10 min. Finally, 50 μl/well of 1M H₂SO₄ was added to stop the reaction. […] Go microplate reader (ThermoFisher, 51119200) was used to read the absorption value at 450 nm and the EC50 based on the OD value was calculated.

For experiment [6] the target is unchanged. Briefly: ELISA; preparation buffer, 0 day, against 0 day.
Experiment [7] concerns the target T2, human TIM-3 extracellular domain-human …. Briefly: ELISA; preparation buffer, 0 day, against 0 day.
Experiment [8] deals with T1, human PD-1 extracellular domain protein …. The experiment in a line: ELISA; 37°C 0 day, against 0 day.
Experiment [9] addresses T2, human TIM-3 extracellular domain-human …. Briefly: ELISA; 37°C 0 day, against 0 day.
Experiment [10] has as its target T1, human PD-1 extracellular domain protein …. Briefly: ELISA; preparation buffer, 37°C 7 days.
Experiment [11] addresses T2, human TIM-3 extracellular domain-human …. The experiment in a line: ELISA; preparation buffer, 37°C 7 days.
Experiment [12] has as its target T1, human PD-1 extracellular domain protein …. Briefly: ELISA, PD-1 coated. The procedure: as §1
The above-mentioned TIM-3 and PD-1 bispecific antibodies of the present invention were optimized and designed using the methods of Example 2 and Example 5, and their affinity for TIM-3 and PD-1 were tested respectively.
The source holds these as a separate data set.

Experiment [13] shares this target. The experiment in a line: ELISA; pH 6.0, 37°C 7 days, against 0 day.
Experiment [14] addresses T2, human TIM-3 extracellular domain-human …. Briefly: ELISA; pH 6.0, 37°C 7 days, against 0 day.
The target of experiment [15] is T1, human PD-1 extracellular domain protein …. The experiment in a line: ELISA; preparation buffer, 37°C 7 days, against 0 day.
The target in experiment [16] is T2, human TIM-3 extracellular domain-human …. The description is as above.
In experiment [17] the target is T1, human PD-1 extracellular domain protein …. Briefly: ELISA; pH 5.5, 40°C 0 day (-80°C).
Experiment [18] concerns the target T2, human TIM-3 extracellular domain-human …. Briefly: ELISA; pH 5.5, 40°C 0 day (-80°C).
The target of experiment [19] is T1, human PD-1 extracellular domain protein …. Briefly: ELISA; pH 5.5, 0 day, against 0 day.
The target in experiment [20] is T2, human TIM-3 extracellular domain-human …. The experiment in a line: ELISA; pH 5.5, 0 day, against 0 day.
Experiment [21] addresses T1, human PD-1 extracellular domain protein …. Briefly: ELISA, EC50 of bispecific over EC50 of the monoclonal control. The procedure:
After washing the microplate 5 times with PBST, 50 μl/well TMB chromogenic substrate (KPL, 52-00-03) was added to the microplate, followed by incubating at room temperature for 10-15 min.
as §1

B1: bispecific antibody LB141 (bispecific antibody, human IgG4 S228P, kappa)
light: EIVLTQSPATLSLSPGERATLSCRASKGVSTSGYSYLHWYQQKPGQAPRLLIYLASYLESGVPARFSGSGSGTDFTLTISSLEPEDFAVYYCQHSRDLPLTFGGGTKVEIKRTVAAPSVFIFPPSDEQLKSGTASVVCLLNNFYPREAKVQWKVDNALQSGNSQESVTEQDSKDSTYSLSSTLTLSKADYEKHKVYACEVTHQGLSSPVTKSFNRGEC
heavy: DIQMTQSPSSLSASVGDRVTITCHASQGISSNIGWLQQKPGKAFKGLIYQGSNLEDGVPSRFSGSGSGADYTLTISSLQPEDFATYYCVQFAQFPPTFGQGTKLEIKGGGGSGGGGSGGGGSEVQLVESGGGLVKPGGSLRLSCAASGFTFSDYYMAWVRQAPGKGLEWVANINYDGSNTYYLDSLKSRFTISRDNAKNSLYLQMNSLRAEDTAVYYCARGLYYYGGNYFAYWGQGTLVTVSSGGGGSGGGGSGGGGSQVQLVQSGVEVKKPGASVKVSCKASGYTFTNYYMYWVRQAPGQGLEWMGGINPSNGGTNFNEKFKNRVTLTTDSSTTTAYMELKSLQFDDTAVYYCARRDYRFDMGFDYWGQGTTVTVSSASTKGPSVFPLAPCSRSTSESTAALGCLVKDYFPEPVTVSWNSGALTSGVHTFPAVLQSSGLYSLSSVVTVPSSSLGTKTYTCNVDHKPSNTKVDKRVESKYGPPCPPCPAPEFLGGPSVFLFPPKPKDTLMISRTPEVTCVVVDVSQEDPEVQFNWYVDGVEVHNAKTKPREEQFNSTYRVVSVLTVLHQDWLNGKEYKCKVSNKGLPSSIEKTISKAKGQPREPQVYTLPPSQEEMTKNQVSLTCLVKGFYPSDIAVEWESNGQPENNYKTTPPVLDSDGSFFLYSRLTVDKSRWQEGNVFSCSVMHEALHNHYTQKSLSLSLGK
notes: ab6VL-(G4S)3-ab6VH-(G4S)3-PemVH-hIgG4 with PemVL-κ
With B1, the EC50 (in general, the concentration giving half of the maximal effect) was found to be 0.378 nM in experiment [1]; 0.303 nM in experiment [2]; 0.127 nM in experiment [5]; 0.331 nM in experiment [10]; 0.325 nM in experiment [11]; 0.052 nM in experiment [12]. The figures for the concentration giving a half-maximal response (EC50) in experiment [17] and in [18] were 0.181 nM and 0.36 nM, respectively. The “Fold change of EC50” value in [3], in experiment [4], in experiment [6], in [7], in [8] and in [9] was 1 ratio each time. Moreover, the “Fold change of EC50” value in experiment [13] was 0.79 ratio; in [14] it was 0.83 ratio; in [15] it was 0.86 ratio; in experiment [16], 1.07 ratio; in experiment [19] it was 1 ratio; in experiment [20] it was 1 ratio. Besides, the “Multiple of EC50 variation” value in [21] was 1.32 ratio.
